From US8653039 (INDIANA UNIVERSITY RESEARCH AND TECHNOLOGY CORPORA, dated 2014)
Blank lines part the entries; values can stand above or below the binder they belong to. Where no end group is shown, it is not given here.

How the values were obtained:
[1] = biological target: cancer specific isoform of proliferating cell nuclear antigen (caPCNA) (human) (UniProt P12004); assay: capture ELISA, XPG-GST on the plate, cell extracts, detection with C20 anti-PCNA antibody
[2] = biological target: T1, cancer specific isoform of proliferating cell nuclear antigen (caPCNA) (human, UniProt P12004 1-261, acidic isoform; the filing says it differs from nmPCNA by post-translational modification, not by a genetic change; the residues are not stated); assay: competition ELISA, caPCNAab on the plate, purified caPCNA, XPG peptide in increasing amounts
T1 construct: Native protein from MCF7 cell extract, nuclear extract or synthesome fraction, or 'isolated/purified caPCNA' in the ELISAs; also called csPCNA; ca(cs)PCNA
T1 sequence (P12004 whole entry, canonical isoform): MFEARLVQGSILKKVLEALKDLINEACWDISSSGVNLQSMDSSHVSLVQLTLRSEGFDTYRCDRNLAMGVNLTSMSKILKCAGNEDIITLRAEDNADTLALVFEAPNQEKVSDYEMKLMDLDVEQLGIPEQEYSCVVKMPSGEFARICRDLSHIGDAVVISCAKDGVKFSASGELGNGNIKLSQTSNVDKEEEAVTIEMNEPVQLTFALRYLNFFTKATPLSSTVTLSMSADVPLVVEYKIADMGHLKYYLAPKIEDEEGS
Experimental: The wells are washed and then incubated with a goat anti-PCNA antibody (C20) that recognizes the C-terminal 20 amino acids of PCNA. Bound C20 antibody is visualized with an alkaline phosphatase conjugated anti-goat IgG antibody, and bound antibody complex is visualized with […], and quantified by spectrophotometry. The competition experiments shown in this study involve the simultaneous incubation of the ca(cs)PCNA with increasing amounts of the antigenic peptide fragment of caPCNA (referred to as B1 or the PCNA aa126-133 peptide) in this assay.
The ELISA described herein was used to monitor the ability of two peptides to disrupt caPCNA binding to the bound caPCNA antibody. One peptide (H-Gly-Arg-Lys- […] OH) (SEQ ID NO: 29) corresponding to the p21cip/waf1 proteins site of interaction with PCNA was evaluated in this assay, and is shown to have no effect on the binding of caPCNA to the bound caPCNA antibody in this ELISA assay (FIG. 7). […] Therefore, the XPG peptide interacts with its recognized PCNA binding site in order to block binding of the PCNA protein to the caPCNA antibody. This happens if the epitope recognized by the antibody was masked by specifically binding this XPG peptide.

Chain of cancer specific isoform of proliferating cell nuclear antigen (caPCNA) (human) (P12004 whole entry, canonical isoform): as above

- fold colored product (absorbance at 405 nm), MCF7 extract against MCF10A extract [1]: 3 fold
B1: XPG-GST fusion protein (peptide, UniProt P28715 981-1009, looked up, not shown: a dimerising Fc or GST)
chain: LKQLDAQQTQLRIDSFFRLAQQEKEDAKR
modifications: also: fused to GST, order of parts and linker not given here

- binding result [2]: binds
B2: XPG peptide corresponding to the XPG-PCNA interaction site of the XPG protein (peptide)
peptide: H-QTQLRIDSFFR-OH
